In experiment [1] the target is wild-type SARS-CoV-2 spike without stabilizing modifications (on cells or pseudovirus) (SARS-CoV-2) (UniProt P0DTC2). The experiment in a line: cell-based or functional assay.
The target of experiment [2] is SARS-CoV spike without stabilizing modifications on pseudovirus (SARS-CoV) (UniProt P59594). The experiment in a line: cell-based or functional assay.
Experiment [3] deals with SARS-CoV-2 HexaPro spike (SARS-CoV-2) (UniProt P0DTC2).

pKd: −log10 of the molar value. Where “and” joins values, the source holds several entries; their conditions need not be identical. Equal entries are not always repeated. Some results are limits rather than exact numbers.

With antibody S309 (Pinto et al., 2020), the Pseudovirus IC50 in experiment [1] was 1 nM; in experiment [2], 0.5 nM. The pKd in experiment [3] is 7.74 and 7.62.

For “isotype control antibody with irrelevant binding”, the Pseudovirus IC50 in experiment [1] and in experiment [2] was above 5000 nM in each case.

One may read the pKd as the Kd on a negative log10 scale, so that one unit is a factor of ten. A higher pKd goes with a small Kd.
